Data set [1] concerns the target T1, AgrR-His6 (Cupriavidus metallidurans NA4) (UniProt Q1LMJ6).
T1 sequence: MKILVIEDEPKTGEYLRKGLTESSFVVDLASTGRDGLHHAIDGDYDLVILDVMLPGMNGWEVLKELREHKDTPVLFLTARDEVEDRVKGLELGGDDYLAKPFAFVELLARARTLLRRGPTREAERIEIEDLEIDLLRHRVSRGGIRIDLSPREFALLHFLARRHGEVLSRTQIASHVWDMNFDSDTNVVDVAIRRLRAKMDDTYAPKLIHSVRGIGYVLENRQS
Kind of data set: EMSA. Particulars: 25 mM Na2HPO4, 150 mM NaCl, 0.1 mM EDTA, 2 mM MgCl2, 1 mM DTT, 10% glycerol, pH 7.0, 22 C, about 0.1 nM probe, 25 ug/ml sonicated salmon sperm DNA.

The target in data set [2] is T1, AgrR-His6 (Cupriavidus metallidurans NA4). As to the kind of experiment: in gel (OP)2-Cu+ footprinting. Particulars: 25 mM Na2HPO4, 150 mM NaCl, 0.1 mM EDTA, 2 mM MgCl2, 1 mM DTT, 10% glycerol, pH 7.0, 22 C, about 0.1 nM probe, 25 ug/ml sonicated salmon sperm DNA.
In data set [3] the target is T2, MBP-AgrR D51A D51A (Cupriavidus metallidurans NA4) (UniProt Q1LMJ6).
T2 sequence: T1 sequence with D51A
As to the kind of experiment: DNase I footprinting. Particulars: 25 mM Na2HPO4, 150 mM NaCl, 0.1 mM EDTA, 2 mM MgCl2, 1 mM DTT, 10% glycerol, pH 7.0, 22 C, about 0.1 nM probe, 25 ug/ml sonicated salmon sperm DNA.

Data set [4] addresses T1, AgrR-His6 (Cupriavidus metallidurans NA4). Kind of data set: DNase I footprinting. Particulars: 25 mM Na2HPO4, 150 mM NaCl, 0.1 mM EDTA, 2 mM MgCl2, 1 mM DTT, 10% glycerol, pH 7.0, 22 C, about 0.1 nM probe, 25 ug/ml sonicated salmon sperm DNA.
Data set [5] has as its target T2, MBP-AgrR D51A D51A (Cupriavidus metallidurans NA4). Kind of data set: premodification binding interference (depurination, depyrimidination, DMS methylation). Particulars: 25 mM Na2HPO4, 150 mM NaCl, 0.1 mM EDTA, 2 mM MgCl2, 1 mM DTT, 10% glycerol, pH 7.0, 22 C, about 0.1 nM probe, 25 ug/ml sonicated salmon sperm DNA.
The target is the same in data set [6]. Kind of data set: EMSA. Particulars: 25 mM Na2HPO4, 150 mM NaCl, 0.1 mM EDTA, 2 mM MgCl2, 1 mM DTT, 10% glycerol, pH 7.0, 22 C, about 0.1 nM probe, 25 ug/ml sonicated salmon sperm DNA.
In data set [7] the target is T3, MBP-AgrR D51E D51E (Cupriavidus metallidurans NA4) (UniProt Q1LMJ6).
T3 sequence: T1 sequence with D51E
Kind of data set: EMSA. Particulars: 25 mM Na2HPO4, 150 mM NaCl, 0.1 mM EDTA, 2 mM MgCl2, 1 mM DTT, 10% glycerol, pH 7.0, 22 C, about 0.1 nM probe, 25 ug/ml sonicated salmon sperm DNA. In general terms: In EMSA bound probe runs differently from free probe, usually more slowly.

The subject of data set [8] is MBP-AgrR D51A (Cupriavidus metallidurans NA4). As to the kind of experiment: EMSA. Particulars: 25 ug/ml salmon sperm DNA; 25 mM Na2HPO4, 150 mM NaCl, 0.1 mM EDTA, 2 mM MgCl2, 1 mM DTT, 10% glycerol, pH 7.0, 22 C, about 0.1 nM probe, 25 ug/ml sonicated salmon sperm DNA.
For data set [9], the system named is AgrR-His6 (Cupriavidus metallidurans NA4). As to the kind of experiment: EMSA. Particulars: 25 ug/ml salmon sperm DNA; 25 mM Na2HPO4, 150 mM NaCl, 0.1 mM EDTA, 2 mM MgCl2, 1 mM DTT, 10% glycerol, pH 7.0, 22 C, about 0.1 nM probe, 25 ug/ml sonicated salmon sperm DNA.

This note sets out measurements from PMC7380067.

Positions count from the first letter of the chain named.

As to “AGGACGTTATCAGGGGTGGTGCGAGCCATGTCAAATTCCATTGATTCTTGTTCCCTGTCATTGAAGACCCTTTAGTCGCTACAGGGTCAAGCGCCTGCCGAAAATCTTTGGAGCGGCGCAAACATGACATGAACGTAATGTTTGCCCGCTCGCTAAACGCCTATAATCGCC (double strand) [czcI2 promoter]”, in data set [1], the binding entry is given as “binds more weakly”.

“ATGGGTTACGGGTTGTTCACGGCTTGCTGGAGAGTCTGATCGGTCGTTGCGCGACCTTGGAATGCAGTCTAGAGGGCGGGTCCCGACGCGAACATGACCCTTGAATGACATTGATGTCATTTGTCCGAGGCAATGCGATACGATTGCCGGACAGGGTGCCGACCGGACAATGAATTCGGCCTTGGCGACAAATCCACGCCAAACAAC (double strand) [prsQ2 promoter/operator]”: the binding entry in [2] is recorded as “binds”. Further, the Kd in data set [1] was found to be 1600 nM.

In the case of “ATTGGAGCGGCGAGTATAGAAATGCCGACATTTCGTTTCGATTGCGGCGAGATTACAGCCGCATCGTTCCGGGCGCGGGCAGGCAGAAAAGGAGGGCGCGAGAGAAGGGCGAGAGAAGGGCGAGGGAAGGGCGGGACTACCCCGCGCCTTGGGTGCGGGGCCTGTGTCGGGTCAATCGACCCAGTTCACCTT (double strand) [ompC-like promoter]”, the binding entry in data set [1] is listed as “binds more weakly”.

Consider “GTGTCCTCGTCAAACCAATGCACCCGGGCCCCGTGCCCGGAAAACGCCGCAAGTGTACGCCGCGGTCCGAACATGACGCGGACATTACCGGAATGTAATTTTTGGGTCATTAGGTGGTTACCGCGCCCTGACTACTCTGTGCTCGCTGCGCCATTTTGCTGGCGCGATTTCACAATGAGAA (double strand) [copA2-copR2 intergenic region]”, for which the binding result in data set [2], in [3] and in [4] was “binds” throughout. In [1], this substance came in with a Kd of 2100 nM.

Consider “GTTTTCATCCTCAGCTGCACGGGCTCACAGCTCAAACGATGCCGCCGATGATAACGGCGCAGGTTCGCCTATTGGATGACAAGACTGTAATCGTTTCGTCCCCGTTTGAAAGGGTGTTGCGTACATAGAATCGCCGCTAATTCTGGATGACCGGCGCCGACAGCGCCTGGAGTGAACCATGTGGATTGTGC (double strand) [agrR control region]”, for which the binding entry is given as “binds” in [5]; “binds” in [2]; “binds” in data set [3]; “binds” in [4]; “binds more weakly” in data set [7]. The figures for the Kd in [6] and in data set [1] were 1600 nM and 16500 nM, respectively.

Regarding “TAGAACTGCCTGTGTTGAGCAGTTGCAGCATTGTACTGCCTCTAACGGTTGCAAAATGGCTATATCAAGATGACATTCGTGCAATGTTCGCCAATTCGTGGCAAAGCTCCGCTAGTGTCTCGGTCTATATCCAGAACCTCGAATAATGGGCCGGTACCAA (double strand) [czcL-czcR2 intergenic region]”, the Kd in data set [1] is 26500 nM.

Turning to “TGAAGCCGATCCATGACATAGTCTCCCTGTTCACCGGTGAATTTTTACACGATCCGGGTGATTTATTGTTGAAAGCACAACCAATCATTGTGGACGGCGCTATTTATTCATATCAGGGAAATGCCTAATATCGCACCATCTGATGCCGCATTGCAGCACCGGTCCTGGGACCACCGGCATCCTTGAATGTGAAAGAGGATTCCATCATG (double strand) [prsQ1 promoter]”, the binding result in data set [1] is given as “no binding”.

On to agrR control region, for which the values for the Kd in [8] and in data set [9] were 1600 nM and 16500 nM, respectively.

Take copA2-copR2 intergenic region: the Kd in [9] turned out to be 2100 nM.

Take czcL-czcR2 intergenic region: the dissociation constant Kd in data set [9] was determined as 26500 nM.

In data set [9], prsQ2 promoter/operator registered a Kd of 1600 nM.

Broadly, the Kd is the free concentration of one partner at which half of the binding sites on the other are occupied at equilibrium, for simple one-to-one binding.
